According to patent US20040053823:

Key:
[1] = tested on: phage clone B79 (SEQ ID NO:5)
[2] = tested on: phage clone A10 (SEQ ID NO:26)
[3] = tested on: synthesized polypeptide A21 (SEQ ID NO:17)
[4] = tested on: phage clone C3 (SEQ ID NO:16)
[5] = tested on: synthesized polypeptide A13 (SEQ ID NO:12)
[6] = tested on: phage clone A43 (SEQ ID NO:8)
[7] = tested on: synthesized polypeptide B49 (SEQ ID NO:1)
[8] = tested on: phage clone A6 (SEQ ID NO:9), MMP-2 substrate
[9] = tested on: phage clone C9 (SEQ ID NO:10)
[10] = tested on: variants of three peptides synthesized to contain a Pro at P3
[11] = tested on: synthesized polypeptide A3 (SEQ ID NO:24)
[12] = tested on: phage clone B37 (SEQ ID NO:13)
[13] = tested on: phage clone A13 (SEQ ID NO:12)
[14] = tested on: synthesized polypeptide A34 (SEQ ID NO:11)
[15] = tested on: phage clone B66 (SEQ ID NO:6)
[16] = tested on: phage clone A45 (SEQ ID NO:25)
[17] = tested on: phage clone A29 (SEQ ID NO:27)
[18] = tested on: phage clone A54 (SEQ ID NO:4)
[19] = tested on: phage clone A4 (SEQ ID NO:21)
[20] = tested on: phage clone B74 (SEQ ID NO:2)
[21] = tested on: synthesized polypeptide B37 (SEQ ID NO:13)
[22] = tested on: phage clone A3 (SEQ ID NO:24)
[23] = tested on: phage clone A54 (SEQ ID NO:3)
[24] = tested on: phage clone C5 (SEQ ID NO:18)
[25] = tested on: phage clone B46 (SEQ ID NO:7)
[26] = tested on: synthesized polypeptide C9 (SEQ ID NO:10)
[27] = tested on: phage clone A9 (SEQ ID NO:19)
[28] = tested on: phage clone A21 (SEQ ID NO:20)
[29] = tested on: phage clone A21 (SEQ ID NO:17)
[30] = tested on: phage clone B53 (SEQ ID NO:15)
[31] = tested on: phage clone C6 (SEQ ID NO:22)
[32] = tested on: phage clone D3 (SEQ ID NO:23)
[33] = tested on: phage clone B49 (SEQ ID NO:1)
[34] = tested on: phage clone A31 (SEQ ID NO:14)
[35] = tested on: phage clone A34 (SEQ ID NO:11)
[36] = tested on: synthesized polypeptide B74 (SEQ ID NO:2)
[37] = tested on: the peptides (MMP-9 substrate peptides of Example III)
[38] = tested on: synthesized polypeptide A11 (contains SEQ ID NO:29)
[39] = tested on: synthesized polypeptide A6 (contains SEQ ID NO:30)
[40] = tested on: phage clone D17 (SEQ ID NO:35)
[41] = tested on: phage clone A6 (SEQ ID NO:30), MMP-9 substrate
[42] = tested on: mutant peptide A11m2 (AC-SGKIPRTATA-NH2, SEQ ID NO:126)
[43] = tested on: mutant peptide A11m1
[44] = tested on: phage clone D24 (SEQ ID NO:33)
[45] = tested on: phage clone C15 (SEQ ID NO:28)
[46] = tested on: synthesized polypeptide C15 (contains SEQ ID NO:28)
[47] = tested on: phage clone A11 (SEQ ID NO:29)
[48] = tested on: phage clone D36 (SEQ ID NO:32)
[49] = tested on: phage clone D12 (SEQ ID NO:31)
[50] = tested on: phage clone D5 (SEQ ID NO:34)

Chain of MMP-2 (recombinant catalytic domain, APMA-activated) (chain, as listed by the source): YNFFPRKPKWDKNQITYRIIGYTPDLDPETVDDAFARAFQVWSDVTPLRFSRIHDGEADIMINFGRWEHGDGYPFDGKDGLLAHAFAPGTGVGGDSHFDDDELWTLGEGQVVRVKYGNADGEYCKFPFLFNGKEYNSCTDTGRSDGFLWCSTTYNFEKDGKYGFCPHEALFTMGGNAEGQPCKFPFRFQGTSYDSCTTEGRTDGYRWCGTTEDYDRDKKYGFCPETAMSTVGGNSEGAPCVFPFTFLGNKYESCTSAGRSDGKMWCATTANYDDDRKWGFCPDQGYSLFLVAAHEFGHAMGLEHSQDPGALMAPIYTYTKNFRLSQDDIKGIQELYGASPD
Chain of MMP-9 (recombinant catalytic domain, APMA-activated) (chain, as listed by the source): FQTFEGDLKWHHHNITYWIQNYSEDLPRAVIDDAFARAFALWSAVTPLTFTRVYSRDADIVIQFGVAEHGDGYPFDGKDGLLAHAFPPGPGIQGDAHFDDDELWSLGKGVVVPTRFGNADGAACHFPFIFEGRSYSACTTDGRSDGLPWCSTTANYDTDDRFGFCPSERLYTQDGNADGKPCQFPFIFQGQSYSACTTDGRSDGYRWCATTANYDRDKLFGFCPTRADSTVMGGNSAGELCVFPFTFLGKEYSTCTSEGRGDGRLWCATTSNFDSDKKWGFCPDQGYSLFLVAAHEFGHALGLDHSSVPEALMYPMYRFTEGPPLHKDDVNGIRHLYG

MMP-2 (recombinant catalytic domain, APMA-activated)
% hydrolysis (substrate phage ELISA) [1]: 64%
% hydrolysis (substrate phage ELISA) [2]: 80%
selectivity ratio: kcat/Km for MMP-2 divided by kcat/Km for MMP-9 [3]: 8
% hydrolysis (substrate phage ELISA) [4]: 28%
selectivity ratio: kcat/Km for MMP-2 divided by kcat/Km for MMP-7 [5]: 13
selectivity ratio: kcat/Km for MMP-2 divided by kcat/Km for MMP-9 [5]: 15
selectivity ratio: kcat/Km for MMP-2 divided by kcat/Km for MMP-13 [5]: 28
% hydrolysis (substrate phage ELISA) [6]: 38%
selectivity ratio: kcat/Km for MMP-2 divided by kcat/Km for MMP-7 [7]: 6
selectivity ratio: kcat/Km for MMP-2 divided by kcat/Km for MMP-9 [7]: 14
selectivity ratio: kcat/Km for MMP-2 divided by kcat/Km for MMP-13 [7]: 13
% hydrolysis (substrate phage ELISA) [8]: 30%
% hydrolysis (substrate phage ELISA) [9]: 100%
peptide hydrolysis (kcat/Km), compared with MMP-9 [10]: the proline-containing peptides remained better substrates for MMP-2 (data not shown)
selectivity ratio: kcat/Km for MMP-2 divided by kcat/Km for MMP-7 [11]: 21
selectivity ratio: kcat/Km for MMP-2 divided by kcat/Km for MMP-9 [11]: 2
selectivity ratio: kcat/Km for MMP-2 divided by kcat/Km for MMP-13 [11]: 14
% hydrolysis (substrate phage ELISA) [12]: 97%
% hydrolysis (substrate phage ELISA) [13]: 100%
selectivity ratio: kcat/Km for MMP-2 divided by kcat/Km for MMP-7 [14]: 84
selectivity ratio: kcat/Km for MMP-2 divided by kcat/Km for MMP-9 [14]: 40
selectivity ratio: kcat/Km for MMP-2 divided by kcat/Km for MMP-13 [14]: 24
% hydrolysis (substrate phage ELISA) [15]: 51%
% hydrolysis (substrate phage ELISA) [16]: 100%
% hydrolysis (substrate phage ELISA) [17]: 100%
% hydrolysis (substrate phage ELISA) [18]: 72%
% hydrolysis (substrate phage ELISA) [19]: 30%
% hydrolysis (substrate phage ELISA) [20]: 81%
selectivity ratio: kcat/Km for MMP-2 divided by kcat/Km for MMP-7 [21]: 17
selectivity ratio: kcat/Km for MMP-2 divided by kcat/Km for MMP-9 [21]: 71
selectivity ratio: kcat/Km for MMP-2 divided by kcat/Km for MMP-13 [21]: 58
% hydrolysis (substrate phage ELISA) [22]: 100%
% hydrolysis (substrate phage ELISA) [23]: 98%
% hydrolysis (substrate phage ELISA) [24]: 60%
% hydrolysis (substrate phage ELISA) [25]: 48%
selectivity ratio: kcat/Km for MMP-2 divided by kcat/Km for MMP-7 [26]: 35
selectivity ratio: kcat/Km for MMP-2 divided by kcat/Km for MMP-9 [26]: 198
selectivity ratio: kcat/Km for MMP-2 divided by kcat/Km for MMP-13 [26]: 52
% hydrolysis (substrate phage ELISA) [27]: 50%
% hydrolysis (substrate phage ELISA) [28]: 30%
% hydrolysis (substrate phage ELISA) [29]: 30%
% hydrolysis (substrate phage ELISA) [30]: 73%
% hydrolysis (substrate phage ELISA) [31]: 19%
% hydrolysis (substrate phage ELISA) [32]: 13%
% hydrolysis (substrate phage ELISA) [33]: 100%
% hydrolysis (substrate phage ELISA) [34]: 100%
% hydrolysis (substrate phage ELISA) [35]: 100%
selectivity ratio: kcat/Km for MMP-2 divided by kcat/Km for MMP-7 [36]: 354
selectivity ratio: kcat/Km for MMP-2 divided by kcat/Km for MMP-9 [36]: 108
selectivity ratio: kcat/Km for MMP-2 divided by kcat/Km for MMP-13 [36]: 140

MMP-9 (recombinant catalytic domain, APMA-activated)
Km (Michaelis constant) [37]: Km values were generally in the high micromolar to low millimolar range
kcat (first-order rate constant of substrate peptide turnover) [37]: the kcat values ranged from 9 s^-1 to 703 s^-1
kcat/Km ratio for MMP-9 over that for MMP-7 or MMP-13 [37]: The kcat/Km ratios ranged from 2.6 to 47 fold higher for MMP-9 than for either MMP-7 or MMP-13
selectivity ratio: kcat/Km for MMP-9 divided by kcat/Km for MMP-7 [38]: 10
selectivity ratio: kcat/Km for MMP-9 divided by kcat/Km for MMP-13 [38]: 3
selectivity ratio: kcat/Km for MMP-9 divided by kcat/Km for MMP-7 [39]: 47
selectivity ratio: kcat/Km for MMP-9 divided by kcat/Km for MMP-13 [39]: 5
% hydrolysis (substrate phage ELISA) [40]: 67%
% hydrolysis (substrate phage ELISA) [41]: 100%
fold reduction of kcat/Km relative to peptide A11 [42]: reduced kcat/Km ratio nearly 30-fold
kcat/Km ratio [42]: measurable kcat/Km ratio (2,000M^-1s^-1)
kcat/Km relative to the parent peptide A11 [43]: 2 fold
fold increase of the kcat/Km ratio on inclusion of Pro at P3 [10]: increased the kcat/Km ratio for MMP-9 between three and eleven-fold
% hydrolysis (substrate phage ELISA) [44]: 85%
% hydrolysis (substrate phage ELISA) [45]: 100%
selectivity ratio: kcat/Km for MMP-9 divided by kcat/Km for MMP-7 [46]: 14
selectivity ratio: kcat/Km for MMP-9 divided by kcat/Km for MMP-13 [46]: 12
% hydrolysis (substrate phage ELISA) [47]: 100%
% hydrolysis (substrate phage ELISA) [48]: 91%
% hydrolysis (substrate phage ELISA) [49]: 100%
% hydrolysis (substrate phage ELISA) [50]: 60%
